According to patent US20170240637A1 (Memorial Sloan Kettering, published 2017):

T1: 2Ig-B7H3-mFc mutant R127A (human, UniProt Q5ZPR3-2 29-248, limits assumed)
T1 construct: not shown: mouse Fc
T1 sequence (looked up): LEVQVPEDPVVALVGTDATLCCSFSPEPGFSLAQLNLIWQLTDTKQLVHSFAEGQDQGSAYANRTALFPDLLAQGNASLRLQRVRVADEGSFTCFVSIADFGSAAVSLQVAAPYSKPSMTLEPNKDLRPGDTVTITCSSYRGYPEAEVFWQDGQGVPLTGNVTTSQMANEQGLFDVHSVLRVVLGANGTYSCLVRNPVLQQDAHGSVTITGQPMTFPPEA

T2: wild type 2Ig-B7H3-mFc (human, UniProt Q5ZPR3-2 29-248, limits assumed)
T2 construct: Q5ZPR3 canonical entry is the 4Ig isoform; the 2Ig form is its shorter isoform; also called 2Ig-B7H3-Fc; WT 2Ig-B7H3-Fc; not shown: mouse Fc
T2 sequence (looked up): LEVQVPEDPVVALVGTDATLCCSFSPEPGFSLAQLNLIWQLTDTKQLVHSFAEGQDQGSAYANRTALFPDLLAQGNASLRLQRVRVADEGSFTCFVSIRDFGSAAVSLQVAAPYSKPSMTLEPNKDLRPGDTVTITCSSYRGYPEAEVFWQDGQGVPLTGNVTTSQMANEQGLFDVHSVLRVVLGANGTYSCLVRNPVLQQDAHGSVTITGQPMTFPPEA

T3: 4Ig-B7H3 (human, UniProt Q5ZPR3 27-461, limits assumed)
T3 construct: also called 4Ig-B73H3
T3 sequence (looked up): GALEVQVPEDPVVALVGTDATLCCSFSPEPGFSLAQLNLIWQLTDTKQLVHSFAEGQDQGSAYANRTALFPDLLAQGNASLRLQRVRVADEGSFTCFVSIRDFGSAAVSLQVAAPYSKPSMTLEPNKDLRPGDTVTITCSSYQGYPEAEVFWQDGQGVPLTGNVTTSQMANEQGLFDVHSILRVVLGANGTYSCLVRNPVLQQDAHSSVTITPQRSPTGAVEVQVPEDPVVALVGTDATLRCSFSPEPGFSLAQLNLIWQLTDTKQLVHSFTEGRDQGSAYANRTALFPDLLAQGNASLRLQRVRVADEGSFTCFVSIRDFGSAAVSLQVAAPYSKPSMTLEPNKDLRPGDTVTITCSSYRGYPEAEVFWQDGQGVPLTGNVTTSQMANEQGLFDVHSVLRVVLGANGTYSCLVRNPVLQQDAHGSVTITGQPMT

T4: 2Ig-B7H3 without Fc fusion (human, UniProt Q5ZPR3-2 29-245, limits assumed)
T4 construct: also called 2IgB7H3 (R&D)
T4 sequence (looked up): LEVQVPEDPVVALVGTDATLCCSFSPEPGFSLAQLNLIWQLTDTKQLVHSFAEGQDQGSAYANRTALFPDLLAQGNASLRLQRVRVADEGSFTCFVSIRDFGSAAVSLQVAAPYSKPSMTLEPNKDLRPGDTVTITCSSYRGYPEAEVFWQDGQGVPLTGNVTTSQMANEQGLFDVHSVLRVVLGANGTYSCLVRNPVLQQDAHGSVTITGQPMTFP

T5: 4Ig-B7H3 fused to mouse Fc (B7H3-mFc) (human, UniProt Q5ZPR3 29-466, limits assumed, biotinylated on primary amines (NHS-biotin) in the experiment of paragraph 316)
T5 construct: Expressed in DG44 CHO cells; also called 4Ig-B7H3-Fc; 4Ig-B7H3-mFc; not shown: mouse Fc
T5 sequence (looked up): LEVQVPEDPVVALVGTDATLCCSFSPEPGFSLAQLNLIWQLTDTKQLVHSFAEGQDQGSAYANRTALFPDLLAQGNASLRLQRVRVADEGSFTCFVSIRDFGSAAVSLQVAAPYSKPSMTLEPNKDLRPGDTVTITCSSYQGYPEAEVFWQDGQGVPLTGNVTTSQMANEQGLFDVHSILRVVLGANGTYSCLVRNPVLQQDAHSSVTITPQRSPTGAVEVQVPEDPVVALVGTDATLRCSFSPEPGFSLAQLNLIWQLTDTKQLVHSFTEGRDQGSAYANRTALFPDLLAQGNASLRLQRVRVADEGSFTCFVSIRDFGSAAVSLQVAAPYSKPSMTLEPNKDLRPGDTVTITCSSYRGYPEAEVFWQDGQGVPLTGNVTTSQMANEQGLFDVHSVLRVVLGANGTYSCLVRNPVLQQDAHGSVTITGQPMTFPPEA


How the values were obtained:
[1] = target: 2Ig-B7H3-mFc mutant D128A (human) (UniProt Q5ZPR3); test: SPR, 400 nM antibody over immobilized D128A mutant
[2] = target: T1, 2Ig-B7H3-mFc mutant R127A; test: SPR, 400 nM antibody over immobilized R127A mutant
wild type 2Ig-B7H3-mFc [3] = target: T2, wild type 2Ig-B7H3-mFc; test: SPR, 400 nM antibody over immobilized WT 2Ig-B7H3-mFc
4Ig-B7H3 [4] = target: T3, 4Ig-B7H3; test: SPR
[5] = target: T4, 2Ig-B7H3 without Fc fusion; test: SPR
[6] = target: B7H3 on B7H3-positive human tumor cells (M14, LAN-1, IMR-32, HeLa) (human) (UniProt Q5ZPR3); test: cell-based or functional assay
[7] = target: T5, 4Ig-B7H3 fused to mouse Fc (B7H3-mFc); test: SPR, IgG on 4Ig-B7H3-Fc
Description: (§1) In brief, B7H3 antigen (either 2Ig-B7H3, 4Ig-B7H3, 2Ig-B7H3-mFc, 4Ig-B7H3-mFc), was directly immobilized onto the CM5 sensor chip via […]. Reference surface was set up for nonspecific binding and refractive index changes. […] The association and dissociation phase data were fitted simultaneously to a 1:1 model by using BIAevaluation 3.2. All the experiments were done at 25° C.

wild type 2Ig-B7H3-mFc [8] = target: T2, wild type 2Ig-B7H3-mFc; test: SPR, IgG on 2Ig-B7H3-mFc
Description: as §1

[9] = target: T4, 2Ig-B7H3 without Fc fusion; test: SPR, IgG on 2Ig-B7-H3 without Fc fusion
Description: as §1

4Ig-B7H3 [10] = target: T3, 4Ig-B7H3; test: SPR, IgG on 4Ig-B7-H3 without Fc fusion
Description: as §1

[11] = target: B7H3 on B7H3-positive human tumor cells (M14, LAN-1, IMR-32, HeLa) (human) (UniProt Q5ZPR3); test: cell-binding assay of 131I-labelled antibody on LAN-1 cells
[12] = target: T1, 2Ig-B7H3-mFc mutant R127A; test: SPR, IgG over immobilised 2Ig-B7H3-mFc R127A (left panel); antibody concentration not shown
wild type 2Ig-B7H3-mFc [13] = target: T2, wild type 2Ig-B7H3-mFc; test: SPR, antigen on CM5 chip
Description: (§2) In brief, B7H3 antigen (either 2Ig-B7H3, 4Ig-B7H3, 2Ig-B7H3-mFc, 4Ig-B7H3-mFc), was directly immobilized onto the CM5 sensor chip via […]. Reference surface was set up for nonspecific binding and refractive index changes. For analysis of the kinetics of interactions, varying concentrations of scFvs were injected at flow rate of 30 μl/min using running buffer containing 10 mM HEPES, 150 mM NaCl, 3 mM EDTA, and 0.05% Surfactant P-20 (pH 7.4). The association and dissociation phase data were fitted simultaneously to a 1:1 model by using BIAevaluation 3.2. All the experiments were done at 25° C.

[14] = target: T1, 2Ig-B7H3-mFc mutant R127A; test: SPR, mutant 2Ig-B7H3-mFc on chip
Description: as §2

4Ig-B7H3 [15] = target: T3, 4Ig-B7H3; test: ELISA titled 'B7H3 ELISA'; legend: 4Ig-B7H3 (the ELISA method coats B7H3-mFc); IgG serially diluted
Description: (§3) B7H3-mFc (100 ng/well) or 2IgB7H3 (R&D, Minneapolis, Minn.) (25 ng/well) were coated on polyvinyl microtiter plates in PBS overnight. Plates were then blocked with 0.5% BSA in PBS at 150 μl per well for 1 h at room temperature. Antibodies were added in triplicates with serial dilution in 0.5% BSA. Following incubation for 1 h at room temperature and washing with PBS, HRP-mouse anti-human Fc antibody, HRP-streptavidin, or HRP-mouse anti-Flag antibody was added. After incubation for 1 h at room temperature and further washing, the color was developed and quantified using an ELISA plate reader at 490 nm.

[16] = target: T1, 2Ig-B7H3-mFc mutant R127A; test: SPR, IgG over immobilised 2Ig-B7H3-mFc R127A (right panel); antibody concentration not shown
4Ig-B7H3 [17] = target: T3, 4Ig-B7H3; test: SPR (Biacore T-100), 4Ig-B7H3 on CM5 chip, scFv injected
Description: as §2

[18] = target: T4, 2Ig-B7H3 without Fc fusion; test: ELISA, right panel '2IgB7H3', scFv serially diluted 0.01-10 µg/ml
Description: as §3

ADCC EC50 (µg/ml), 51Cr release, LAN-1 targets, human PBMC effectors [6] | Fold change EC50 relative to ch8H9 (ADCC) [6] | Kd [7] | koff [7] | kon [7] | Kd (wild type 2Ig-B7H3-mFc [8]) | koff (wild type 2Ig-B7H3-mFc [8]) | kon (wild type 2Ig-B7H3-mFc [8]) | Kd [9] | koff [9] | kon [9] | Kd (4Ig-B7H3 [10]) | koff (4Ig-B7H3 [10]) | kon (4Ig-B7H3 [10]) | in vitro immunoreactivity [11] | Molecule | further results
– | – | – | – | – | – | – | – | – | – | – | – | – | – | – | anti-B7H3 MAb MIH42 (Thermo Scientific Pierce) (antibody) | Relative binding (to WT) [1]: 68.8%; Relative binding (to WT) [2]: 76.1%; Max RU (wild type 2Ig-B7H3-mFc [3]): 2530 RU
0.31 µg/mL | 5 fold | 2 nM | 0.000114 s⁻¹ | 55600 M⁻¹ s⁻¹ | 6 nM | 0.000232 s⁻¹ | 38700 M⁻¹ s⁻¹ | 5 nM | 0.000171 s⁻¹ | 33900 M⁻¹ s⁻¹ | 13 nM | 0.000298 s⁻¹ | 23400 M⁻¹ s⁻¹ | 54% | hu8H9 3.1 IgG1 (antibody, V domains shown, also called clone 3.1) VH: QVQLVQSGAEVVKPGASVKLSCKTSGYTFTNYDINWVRQRPGQGLEWIGWIFPGDDSTQYNEKFKGKATLTTDTSTSTAYMELSSLRSEDTAVYFCARQTTGTWFAYWGQGTLVTVSS VL: EIVMTQSPATLSVSPGERVTLSCRASQSISDYLYWYQQKSHESPRLLIKYASQSISGIPARFSGSGSGSEFTLTINSVEPEDVGVYYCQNGHSFPLTFGQGTKLELKR | fold enhancement in affinity against parental hu8H9 H3L3 (4Ig-B7H3 [4]): 2.5 to 9 fold; fold enhancement in affinity against parental hu8H9 H3L3 [5]: 2.5 to 9 fold; binding result [12]: no binding
– | – | 1.2 nM | 5.49e-05 s⁻¹ | 44800 M⁻¹ s⁻¹ | 0.76 nM | 3.79e-05 s⁻¹ | 49600 M⁻¹ s⁻¹ | 2.7 nM | 8.73e-05 s⁻¹ | 32100 M⁻¹ s⁻¹ | 7.7 nM | 0.000218 s⁻¹ | 28300 M⁻¹ s⁻¹ | – | mouse/human chimeric 8H9 (ch8H9) IgG1 (antibody, V domains shown) VH: QVQLQQSGAELVKPGASVKLSCKASGYTFTNYDINWVRQRPEQGLEWIGWIFPGDGSTQYNEKFKGKATLTTDTSSSTAYMQLSRLTSEDSAVYFCARQTTATWFAYWGQGTLVTVSA VL: DIVMTQSPATLSVTPGDRVSLSCRASQSISDYLHWYQQKSHESPRLLIKYASQSISGIPSRFSGSGSGSDFTLSINSVEPEDVGVYYCQNGHSFPLTFGAGTKLELKR | Kd (wild type 2Ig-B7H3-mFc [13]): 0.74 nM; koff (wild type 2Ig-B7H3-mFc [13]): 3.51e-05 s⁻¹; kon (wild type 2Ig-B7H3-mFc [13]): 47400 M⁻¹ s⁻¹; binding result [14]: no binding (tested: 400 nM); EC50 (read off the curve) (4Ig-B7H3 [15]): ~0.005 µg/mL
0.16 µg/mL | 9 fold | 1.3 nM | 7.08e-05 s⁻¹ | 59200 M⁻¹ s⁻¹ | 0.82 nM | 5.59e-05 s⁻¹ | 67800 M⁻¹ s⁻¹ | – | – | – | – | – | – | – | hu8H9 5.1 IgG1 (antibody, V domains shown, also called clone 5.1) VH: QVQLVQSGAEVVKPGASVKVSCKTSGYTFTNYDINWVRQRPGQGLEWIGWIFPGDDSTQYNEKFKGRVTMTTDTSTSTVYMELSSLRSEDTAVYFCARQTTGTWFAYWGQGTLVTVSS VL: EIVMTQSPATLSVSPGERVTLSCRASQSISDYLYWYQQKSHQAPRLLIKYASQSISGIPARFSGSGSGSEFTLTISSLQPEDFGVYYCQNGHSFPLTFGQGTKLELKR | binding result [16]: no binding
0.1 µg/mL | 14 fold | – | – | – | – | – | – | 0.62 nM | 4.25e-05 s⁻¹ | 68900 M⁻¹ s⁻¹ | 3.7 nM | 0.000123 s⁻¹ | 33500 M⁻¹ s⁻¹ | 73% | ch8H9 6.1 IgG (ch8H9 + 6 affinity maturation mutations) (antibody, V domains shown) VH: QVQLQQSGAELVKPGASVKLSCKTSGYTFTNYDINWVRQRPGQGLEWIGWIFPGDDSTQYNEKFKGKATLTTDTSSSTAYMQLSRLTSEDSAVYFCARQTTGTWFAYWGQGTLVTVSA VL: DIVMTQSPATLSVTPGDRVTLSCRASQSISDYLYWYQQKSHESPRLLIKYASQSISGIPSRFSGSGSGSDFTLSINSVEPEDVGVYYCQNGHSFPLTFGAGTKLELKR | fold enhancement in binding relative to ch8H9 (4Ig-B7H3 [4]): 2 to 4 fold; fold enhancement in binding relative to ch8H9 [5]: 2 to 4 fold
– | – | – | – | – | – | – | – | – | – | – | – | – | – | – | hu8H9 clone S3.3 scFv (scFv, also called Sort3; not shown: FLAG and His tags) scFv: QVQLVQSGAEVVKPGASVKLSCKTSGYTFTNYDINWVRQRPGQGLEWIGWIFPGDGSTQYNEKFKGKATLTTDTSTSTAYMELSSLRSEDTAVYFCARQTTATWFAYWGQGTLVTVSSGGGGSGGGGSGGGGSEIVMTQSPATLSVSPGERVTLSCRASQSISDYLYWYQQKSHESPRLLIKYASQSISGIPARFSGSGSGSEFTLTINSVEPEDVGVYYCQNGHSFPLTFGQGTKLELKR | Kd (4Ig-B7H3 [17]): 9.85 nM; koff (4Ig-B7H3 [17]): 0.000244 s⁻¹; kon (4Ig-B7H3 [17]): 24800 M⁻¹ s⁻¹; EC50 (read off the curve) [18]: ~0.2 µg/mL
